Columns and labels:
Assay in all cases: co-expression in E. coli (pETDuet-1, N-6 His on the -1 fragment, -2 fragment untagged); Ni-NTA purification
[1] = biological target: T1, IPD082Ie-2, C-terminal fragment of homolog IPD082Ie (Pseudomonas agarici)
T1 chain: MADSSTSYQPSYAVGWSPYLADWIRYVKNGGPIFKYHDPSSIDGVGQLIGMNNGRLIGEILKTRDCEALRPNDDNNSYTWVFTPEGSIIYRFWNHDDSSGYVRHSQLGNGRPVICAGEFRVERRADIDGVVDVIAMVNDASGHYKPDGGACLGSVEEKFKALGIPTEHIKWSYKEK
Text: (§1) The IPD082Aa gene (SEQ ID NO: 1) was amplified by PCR using genomic DNA isolated from strain SSP446D7 using forward primer […] (SEQ ID NO: 59) and reverse primer […] (SEQ ID NO: 60). The resulting PCR product was DNA sequence verified and subcloned into pET16B vector with an N-terminal His-10 tag, and into pET24a vector with C-terminal His-10 tag or without tag. The plasmid DNA, containing the IPD082Aa gene insert, was transformed into competent C41 E. coli cells for recombinant protein expression. E. coli cells were grown at 37° C. with carbenicillin or kanamycin selection to OD₆₀₀ equal to 0.7-0.8 and then 1 mM ITPG was added and further grown at 16° C. for 16 hours to induce protein expression. The E. coli expressed His-tagged proteins were purified by immobilized metal ion chromatography using Ni-NTA agarose (Qiagen, Germany) according to the manufacturer's protocols. Other IPD082 homologs were expressed in a similar manner except the gene sequences were synthesized.
(§2) The polynucleotides, SEQ ID NO: 33 and SEQ ID NO: 35 respectively, encoding the 38.2 kDa N-terminal fragment (IPD082Aa-1—SEQ ID NO: 34) and 20.5 kDa C-terminal fragment (IPD082Aa-2—SEQ ID NO: 36) of IPD082Aa, were also co-expressed (FIG. 11) in a pETDuet™-1 vector (EMD Millipore, a Life Science business of Merck KGaA, Frankfurter StraBe 250, 64293, Darmstadt, Germany). Similarly polynucleotides encoding the C-terminal fragments of the IPD082 homologs: IPD082Hb-2 (SEQ ID NO: 37); IPD082Ia-2 (SEQ ID NO: 39); IPD082Ic-2 (SEQ ID NO: 41); IPD082Ie-2 (SEQ ID NO: 43); IPD082Ib-2 (SEQ ID NO: 45); IPD082Hd-2 (SEQ ID NO: 47); and IPD082Hc-2 (SEQ ID NO: 49), were cloned as chimeric fusions with IPD082Aa-2 (SEQ ID NO: 35) in the pETDuet™-1 vector containing IPD082Aa-1 polynucleotide (SEQ ID NO: 33).

[2] = biological target: T2, IPD082Ic-2, C-terminal fragment of homolog IPD082Ic (Pseudomonas sp. S16-2)
T2 chain: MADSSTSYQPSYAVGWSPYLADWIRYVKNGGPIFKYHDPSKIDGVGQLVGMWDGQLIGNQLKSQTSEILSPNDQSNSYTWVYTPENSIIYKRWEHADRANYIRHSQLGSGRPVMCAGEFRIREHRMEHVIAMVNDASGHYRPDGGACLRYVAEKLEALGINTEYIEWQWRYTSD
Text: as §1, §2

[3] = biological target: T3, IPD082Hd-2, C-terminal fragment of homolog IPD082Hd (Pseudomonas corrugata)
T3 chain: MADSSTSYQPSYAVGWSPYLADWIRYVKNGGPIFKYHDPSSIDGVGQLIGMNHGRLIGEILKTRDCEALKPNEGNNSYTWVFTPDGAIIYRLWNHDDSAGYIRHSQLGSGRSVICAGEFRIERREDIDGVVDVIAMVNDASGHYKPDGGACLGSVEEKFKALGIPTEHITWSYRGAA
Text: as §1, §2

[4] = biological target: T4, IPD082Ia-2, C-terminal fragment of homolog IPD082Ia (Pseudomonas monteilii)
T4 chain: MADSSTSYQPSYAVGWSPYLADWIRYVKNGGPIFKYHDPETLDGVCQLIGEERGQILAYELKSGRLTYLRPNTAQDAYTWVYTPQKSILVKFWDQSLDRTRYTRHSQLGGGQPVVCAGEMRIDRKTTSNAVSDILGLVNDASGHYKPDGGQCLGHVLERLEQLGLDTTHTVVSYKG
Text: as §1, §2

[5] = biological target: T5, IPD082Hc-2, C-terminal fragment of homolog IPD082Hc (Pseudomonas corrugata)
T5 chain: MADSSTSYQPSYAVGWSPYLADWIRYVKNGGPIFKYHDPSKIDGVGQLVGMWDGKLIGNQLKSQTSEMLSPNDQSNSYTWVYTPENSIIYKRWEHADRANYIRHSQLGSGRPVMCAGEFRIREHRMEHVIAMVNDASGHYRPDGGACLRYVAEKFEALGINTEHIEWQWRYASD
Text: as §1, §2

[6] = biological target: T6, IPD082Ib-2, C-terminal fragment of homolog IPD082Ib (Pseudomonas sp VLB120)
T6 chain: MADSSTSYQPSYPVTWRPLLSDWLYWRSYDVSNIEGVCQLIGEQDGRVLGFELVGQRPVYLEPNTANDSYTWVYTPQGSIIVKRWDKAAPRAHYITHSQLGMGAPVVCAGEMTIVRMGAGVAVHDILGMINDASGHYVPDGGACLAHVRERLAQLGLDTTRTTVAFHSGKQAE
Text: as §1, §2

Measured: binding result

B1: IPD082Aa-1, N-terminal region of IPD082Aa (pETDuet-1 construct, N-6 His) (other)
chain: MQTTVSETLVSGSDPRLQVSMGNETANGRWDNPYAIQFTYSIAGRQFFYGQNLKTHYWFIQELLPGGKMGQETANGRWDNPYAVQFAFSVGGRQFFYGQNLETNYWFIQELLAGGKMGQETANGRWNNPYASQFAFSVGGRQFFYGQNLKTNYWFIQELLAGGKMGQETANGTLDGPFAVQFPFSVGGSQYFYGQNIKDRSWFIKELLAGGKVGKTTASGRWDNAYAVQFAYPAEQYGRQYFYGQNLDTNYWFVQELLPGGAMGEEIMNGRWGNPYATQFAYEQGGISYFYGQNQSSNYWFIQELLSDTEYTVRRLPLLDYSSSTSAAQQSAPGVCL
notes: Co-expressed in pETDuet-1 with untagged C-terminal fragments of IPD082 homologs; not shown: N-terminal 6xHis tag of the pETDuet-1 vector ('N-6 His for -1')
binds: all assays above
